From the supplement of paper PMC9170038 come the findings set out here.

This data set has as its system MS2 coat protein. Put plainly: apparent KD of MS2 coat protein; designed switch direction (-1 OFF switch, 1 ON switch): 1; higher = weaker reporter binding. An outline of the steps:
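Transcription of designed RNA switches on Illumina chips was done by stalled E. coli RNA polymerase. SNAP-549-labelled MS2 coat protein was then titrated in doubling steps from 0.7 or 1.5 nM to 3 µM, with steps of 0.8–1.5 h at the lowest and 10–20 min at the highest concentration. The per-design median over clusters of curve-fitted normalised fluorescence is reported as apparent KD.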

Where [1] appears, read: input ligand: microRNA oligo, concentration not stated.
Where [2] appears, read: Eterna round: R95, input ligand: microRNA oligo, concentration not stated.

With “AUACCGUGCCAAGGAUAUGGUGUAAACACAUGAGGAUCACCCAUGUCAGAGAGUCGAGCGACUAGCUAGAAGGUGGUAUGGGAA [Eternabot solution 9] (Eterna round: R96, puzzle: Same State NG 2)”, the “apparent KD of MS2 coat protein” value worked out at 112 nM (input ligand: FMN 200 uM), 149 nM under setting [1] and 393 nM (input ligand: none).
In the case of “AUAGUUUCCGAAGGAUAUGAUGAGGAUCACCCAUCAGAAGGUUGGCUAUUGGGCUGACAUGAGGAUCACCCAUGUUCCGGUGUU (Eterna round: R96, puzzle: Same State NG 1)”, the “apparent KD of MS2 coat protein” value is, setting by setting: (input ligand: FMN 200 uM) 33.7 nM; under setting [1], 31.9 nM; (input ligand: none) 43.3 nM.
On the same counts, the results for “AUCAUUAAUGCAGGAUAUGAUUAACAUGAGGAUCACCCAUGUGGUGUUGUGAGUAAGGAGAGUGAUCAGAAGGGCAUUUUUUUU [JMF's solution 35] (Eterna round: R96, puzzle: Same State NG 2)” are 699 nM, 292 nM and 469 nM.
Regarding “AUCCUACAUGAGGAUCACCCAUGUGACGCCUCAAUAGGAUAUGCGUGUGCCUUGGCGCAUGCAGAAGGAUUGAAGC [JL Aveso mod 1] (puzzle: Same State 1)”, under setting [2], the “apparent KD of MS2 coat protein” value was 295 nM.
With “AUGAAGAAUUAAGGAUAUUGAUUACAUAUGUUUAACAUGAGGAUCACCCAUGUGGGUUGCGGUAUCGAGAAGGUAAAUUAAUAG [Mat - same State NG 2 - JL mod - D84] (Eterna round: R96, puzzle: Same State NG 2)”, the “apparent KD of MS2 coat protein” value by setting is: (input ligand: FMN 200 uM) 187 nM; under setting [1], 129 nM; (input ligand: none) 196 nM.
Regarding “AUGAAUUUGCGAGGAUAUCGUUUGUUGAAGUUACGAGAAGGCGCUCACUUUACAUGAGGAUCACCCAUGUUUAUGAUAUAUGAU [JR_SSNG1_Sub074] (Eterna round: R96, puzzle: Same State NG 1)”, the “apparent KD of MS2 coat protein” value (input ligand: FMN 200 uM) turned out to be 24.1 nM, the “apparent KD of MS2 coat protein” value under setting [1] amounted to 30 nM and the “apparent KD of MS2 coat protein” value (input ligand: none) came out at 37.1 nM.
For “AUUAAACAUGAGGAUCACCCAUGUCAACAAAGUCGAGGAUAUGGGCAAAUUAAAUAAGAACCAGAAGGCGAAUAAU [salish99_ss1_r3_060] (puzzle: Same State 1)”, the “apparent KD of MS2 coat protein” value amounted to 35.9 nM (Eterna round: R95, input ligand: FMN 200 uM); 189 nM under setting [2]; 269 nM (Eterna round: R95, input ligand: none).
As for “AUUAAUUAAUUAAUACAUGAGGAUCACCCAUGUAAUAAGAUCAAGGAUAUCAGCUCGAAUAGAGCUGAGAAGGUGAUCACAUGU [SSNG3/17-B1] (Eterna round: R96, puzzle: Same State NG 3)”, the “apparent KD of MS2 coat protein” value under setting [1] was found to be 337 nM.
Turning to “AUUAUACAUGAGGAUCACCCAUGUAAUUAAUCUAGUAAGAUCUAGGAUAUCAGCUCGAUUAGAGCUGAGAAGGAGAUCACAUGU [SSNG3/20-D2] (Eterna round: R96, puzzle: Same State NG 3)”, the “apparent KD of MS2 coat protein” value under setting [1] worked out at 42.9 nM.
Still for that read-out and setting: in the case of “AUUAUACAUGAGGAUCACCCAUGUAAUUAAUUAAUUAAGAUCAAGGAUAUCAGCUCGAUUAGAGCUGAGAAGGUGAUCACAUGU [SSNG3/20-B2] (Eterna round: R96, puzzle: Same State NG 3)” it was 170 nM; in that of “AUUAUUAAUGCAGGAUAUGAUUAACAUGAGGAUCACCCAUGUGGUGUUGUGAGUAAGGAGAGUGAUCAGAAGGGCAUUUUUUUU [JMF's solution 6] (Eterna round: R96, puzzle: Same State NG 2)”, 463 nM; in that of “AUUAUUUCAUGAGGAUAUGGCACCUUAUUGGUGCCAGAAGGCAUGUCUAUUGACAUGAGGAUCACCCAUGUAUUAAAUUAUAUA [Eli NG1ss - 89] (Eterna round: R96, puzzle: Same State NG 1)”, 387 nM.
Regarding “AUUCGAUAGAUAGGAUAUCACCAUACAUGAGGAUCACCCAUGUUGACCACGCUGGUUAUUCAUACUGAGAAGGAUCUUGAUGAC [JR_SSNG2_Sub005] (Eterna round: R96, puzzle: Same State NG 2)”, the “apparent KD of MS2 coat protein” value stood at 27.8 nM (input ligand: FMN 200 uM), 31.1 nM under setting [1] and 52.2 nM (input ligand: none).
